T1: CD20 on Raji cells (CD20+ tumor cells) (UniProt P11836 1-297, limits assumed)
T1 construct: whole, on cells; also called CD20^+ Raji cells
T1 sequence (looked up): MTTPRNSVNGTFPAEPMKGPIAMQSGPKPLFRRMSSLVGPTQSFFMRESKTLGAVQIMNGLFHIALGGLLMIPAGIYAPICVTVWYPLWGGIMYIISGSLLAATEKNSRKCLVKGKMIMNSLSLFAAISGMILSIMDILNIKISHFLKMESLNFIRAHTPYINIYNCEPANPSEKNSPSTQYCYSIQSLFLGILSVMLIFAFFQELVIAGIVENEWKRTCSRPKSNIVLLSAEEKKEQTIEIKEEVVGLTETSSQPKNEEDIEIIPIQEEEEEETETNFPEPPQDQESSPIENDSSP


Molecular target: T1, CD20 on Raji cells (CD20+ tumor cells)
Assay: FACS on Raji cells
Method: For the assay to test the MBS303 and MBS303m′ binding activity to Raji and Jurkat cells, 10⁵ Raji or Jurkat cells were plated on 96-well ELISA plates in 100 μ1 cell culture medium, and the ELISA plates were added with 50 μl serially diluted MBS303 and MBS303m, respectively. […] The ELISA plates were incubated 4° C. for 1 h, washed with PBS for three times, and subject to the BD flow cytometry system for FACS.

Row | binding result | Binder
1 | binds | MBS303 (anti-CD3/CD20 bispecific antibody, anti-CD20 scFv with wildtype light chain framework regions) (bispecific antibody, human IgG1, kappa, lambda, L234A L235A, N297A, Asymmetric; half antibodies MIL220 and MIL221-2 were expressed separately and assembled in vitro; also called MIL220 + MIL221-2) heavy 1: QVQLVQSGAEVKKPGSSVKVSCKASGYAFSYSWINWVRQAPGQGLEWMGRIFPGDGDTDYNGKFKGRVTITADKSTSTAYMELSSLRSEDTAVYYCARNVFDGYWLVYWGQGTLVTVSSASTKGPSVFPLAPSSKSTSGGTAALGCLVKDYFPEPVTVSWNSGALTSGVHTFPAVLQSSGLYSLSSVVTVPSSSLGTQTYICNVNHKPSNTKVDKKVEPKSCDKTHTCPPCPAPEAAGGPSVFLFPPKPKDTLMISRTPEVTCVVVDVSHEDPEVKFNWYVDGVEVHNAKTKPREEQYASTYRVVSVLTVLHQDWLNGKEYKCKVSNKALPAPIEKTISKAKGQPREPQVYTLPPSREEMTKNQVSLSCAVKGFYPSDIAVEWESNGQPENNYKTTPPVLDSDGSFFLVSKLTVDKSRWQQGNVFSCSVMHEALHNHYTQKSLSLSPGK light 1: DIVMTQTPLSLPVTPGEPASISCRSSKSLLHSNGITYLYWYLQKPGQSPQLLIYQMSNLVSGVPDRFSGSGSGTDFTLKISRVEAEDVGVYYCAQNLELPYTFGGGTKVEIKRTVAAPSVFIFPPSDEQLKSGTASVVCLLNNFYPREAKVQWKVDNALQSGNSQESVTEQDSKDSTYSLSSTLTLSKADYEKHKVYACEVTHQGLSSPVTKSFNRGEC heavy 2: QVQLVQSGAEVKKPGSSVKVSCKASGYAFSYSWINWVRQAPGQGLEWMGRIFPGDGDTDYNGKFKGRVTITADKSTSTAYMELSSLRSEDTAVYYCARNVFDGYWLVYWGQGTLVTVSSGGGGSGGGGSGGGGSDIVMTQTPLSLPVTPGEPASISCRSSKSLLHSNGITYLYWYLQKPGQSPQLLIYQMSNLVSGVPDRFSGSGSGTDFTLKISRVEAEDVGVYYCAQNLELPYTFGGGTKVEIKGGGGSGGGGSGGGGSEVQLLESGGGLVQPGGSLRLSCAASGFTFNTYAMNWVRQAPGKGLEWVARIRSKYNNYATYYAISVKDRFTISRDDSKNTLYLQMNSLRAEDTAMYYCVRHGNFGNSYLSYWAYWGQGTLVTVSSASTKGPSVFPLAPSSKSTSGGTAALGCLVKDYFPEPVTVSWNSGALTSGVHTFPAVLQSSGLYSLSSVVTVPSSSLGTQTYICNVNHKPSNTKVDKKVEPKSCDKTHTCPPCPAPEAAGGPSVFLFPPKPKDTLMISRTPEVTCVVVDVSHEDPEVKFNWYVDGVEVHNAKTKPREEQYASTYRVVSVLTVLHQDWLNGKEYKCKVSNKALPAPIEKTISKAKGQPREPQVYTLPPSREEMTKNQVSLWCLVKGFYPSDIAVEWESNGQPENNYKTTPPVLDSDGSFFLYSKLTVDKSRWQQGNVFSCSVMHEALHNHYTQKSLSLSPGK light 2: QAVVTQEPSLTVSPGGTVTLTCQSSTGAVTTNNYANWVQQKPGHAFRGLIGGTKQRAPGVPARFSGSLLGGKAALTLSGVQPEDEAEYYCVLWYSNLWVFGGGTKLTVLGQPKAAPSVTLFPPSSEELQANKATLVCLISDFYPGAVTVAWKADSSPVKAGVETTTPSKQSNNKYAASSYLSLTPEQWKSHRSYSCQVTHEGSTVEKTVAPTECS
2 | binds | MBS303m (with 83E, 100Q and 104-106LTA) (anti-CD3/CD20 bispecific antibody, anti-CD20 scFv with mutated light chain framework regions) (bispecific antibody, human IgG1, kappa, lambda, L234A L235A, N297A, also called MIL220 + MIL221-3 (with 83E, 100Q, 104-106LTA)) heavy 1: QVQLVQSGAEVKKPGSSVKVSCKASGYAFSYSWINWVRQAPGQGLEWMGRIFPGDGDTDYNGKFKGRVTITADKSTSTAYMELSSLRSEDTAVYYCARNVFDGYWLVYWGQGTLVTVSSASTKGPSVFPLAPSSKSTSGGTAALGCLVKDYFPEPVTVSWNSGALTSGVHTFPAVLQSSGLYSLSSVVTVPSSSLGTQTYICNVNHKPSNTKVDKKVEPKSCDKTHTCPPCPAPEAAGGPSVFLFPPKPKDTLMISRTPEVTCVVVDVSHEDPEVKFNWYVDGVEVHNAKTKPREEQYASTYRVVSVLTVLHQDWLNGKEYKCKVSNKALPAPIEKTISKAKGQPREPQVYTLPPSREEMTKNQVSLSCAVKGFYPSDIAVEWESNGQPENNYKTTPPVLDSDGSFFLVSKLTVDKSRWQQGNVFSCSVMHEALHNHYTQKSLSLSPGK light 1: DIVMTQTPLSLPVTPGEPASISCRSSKSLLHSNGITYLYWYLQKPGQSPQLLIYQMSNLVSGVPDRFSGSGSGTDFTLKISRVEAEDVGVYYCAQNLELPYTFGGGTKVEIKRTVAAPSVFIFPPSDEQLKSGTASVVCLLNNFYPREAKVQWKVDNALQSGNSQESVTEQDSKDSTYSLSSTLTLSKADYEKHKVYACEVTHQGLSSPVTKSFNRGEC heavy 2: QVQLVQSGAEVKKPGSSVKVSCKASGYAFSYSWINWVRQAPGQGLEWMGRIFPGDGDTDYNGKFKGRVTITADKSTSTAYMELSSLRSEDTAVYYCARNVFDGYWLVYWGQGTLVTVSSGGGGSGGGGSGGGGSGGGGSDIVMTQTPLSLPVTPGEPASISCRSSKSLLHSNGITYLYWYLQKPGQSPQLLIYQMSNLVSGVPDRFSGSGSGTDFTLKISRVEAEDEGVYYCAQNLELPYTFGQGTKLTAKGGGGSGGGGSGGGGSEVQLLESGGGLVQPGGSLRLSCAASGFTFNTYAMNWVRQAPGKGLEWVARIRSKYNNYATYYAISVKDRFTISRDDSKNTLYLQMNSLRAEDTAMYYCVRHGNFGNSYLSYWAYWGQGTLVTVSSASTKGPSVFPLAPSSKSTSGGTAALGCLVKDYFPEPVTVSWNSGALTSGVHTFPAVLQSSGLYSLSSVVTVPSSSLGTQTYICNVNHKPSNTKVDKKVEPKSCDKTHTCPPCPAPEAAGGPSVFLFPPKPKDTLMISRTPEVTCVVVDVSHEDPEVKFNWYVDGVEVHNAKTKPREEQYASTYRVVSVLTVLHQDWLNGKEYKCKVSNKALPAPIEKTISKAKGQPREPQVYTLPPSREEMTKNQVSLWCLVKGFYPSDIAVEWESNGQPENNYKTTPPVLDSDGSFFLYSKLTVDKSRWQQGNVFSCSVMHEALHNHYTQKSLSLSPGK light 2: QAVVTQEPSLTVSPGGTVTLTCQSSTGAVTTNNYANWVQQKPGHAFRGLIGGTKQRAPGVPARFSGSLLGGKAALTLSGVQPEDEAEYYCVLWYSNLWVFGGGTKLTVLGQPKAAPSVTLFPPSSEELQANKATLVCLISDFYPGAVTVAWKADSSPVKAGVETTTPSKQSNNKYAASSYLSLTPEQWKSHRSYSCQVTHEGSTVEKTVAPTECS

— US20230348612A1 (BEIJING MABWORKS BIOTECH, published 2023)
